In article PMC3590144, “Determination of the Structure of the Catabolic N-Succinylornithine Transaminase (AstC) from Escherichia coli” (PLoS ONE, 2013):

Columns and labels:
[1] = target: the molecule itself; assay: crystal structure; apo-AstC without PLP; space group R32:h, 2 molecules in the asymmetric unit, 2.75 Å; grown in 1.4 M sodium malonate pH 7 at 20 °C; dimers formed by crystallographic symmetry
[2] = target: the molecule itself; assay: dynamic light scattering; in solution; hydrodynamic radius mean value 4.5 nm, about 100 kDa; data not shown

B1: apo-AstC, N-succinylornithine transaminase from Escherichia coli, without PLP (enzyme, E. coli (BL21 DE3), UniProt P77581 1-406, looked up)
chain: MSQPITRENFDEWMIPVYAPAPFIPVRGEGSRLWDQQGKEYIDFAGGIAVNALGHAHPELREALNEQASKFWHTGNGYTNEPVLRLAKKLIDATFADRVFFCNSGAEANEAALKLARKFAHDRYGSHKSGIVAFKNAFHGRTLFTVSAGGQPAYSQDFAPLPADIRHAAYNDINSASALIDDSTCAVIVEPIQGEGGVVPASNAFLQGLRELCNRHNALLIFDEVQTGVGRTGELYAYMHYGVTPDLLTTAKALGGGFPVGALLATEECARVMTVGTHGTTYGGNPLASAVAGKVLELINTPEMLNGVKQRHDWFVERLNTINHRYGLFSEVRGLGLLIGCVLNADYAGQAKQISQEAAKAGVMVLIAGGNVVRFAPALNVSEEEVTTGLDRFAAACEHFVSRGSS
notes: AstC (acetyl/succinylornithine aminotransferase) of E. coli; native, untagged protein, no plasmid or clone used; electron density from Gln3 to Ser402, the last 4 residues (Arg-Gly-Ser-Ser) not modelled, which implies 406 residues; Endogenous protein of strain BL21 (DE3); also called apo-protein; apo-enzyme; source: endogenous, E. coli BL21 (DE3) grown in 2xYT, purified (Ni-NTA, size exclusion …)
binding result [1]: binds

B2: holo-AstC, N-succinylornithine transaminase from Escherichia coli reconstituted with PLP (enzyme, E. coli (BL21 DE3), UniProt P77581 1-406, looked up)
chain: MSQPITRENFDEWMIPVYAPAPFIPVRGEGSRLWDQQGKEYIDFAGGIAVNALGHAHPELREALNEQASKFWHTGNGYTNEPVLRLAKKLIDATFADRVFFCNSGAEANEAALKLARKFAHDRYGSHKSGIVAFKNAFHGRTLFTVSAGGQPAYSQDFAPLPADIRHAAYNDINSASALIDDSTCAVIVEPIQGEGGVVPASNAFLQGLRELCNRHNALLIFDEVQTGVGRTGELYAYMHYGVTPDLLTTAKALGGGFPVGALLATEECARVMTVGTHGTTYGGNPLASAVAGKVLELINTPEMLNGVKQRHDWFVERLNTINHRYGLFSEVRGLGLLIGCVLNADYAGQAKQISQEAAKAGVMVLIAGGNVVRFAPALNVSEEEVTTGLDRFAAACEHFVSRGSS
modifications: PLP bound to Lys252 in a Schiff base (aldimine)
notes: AstC (acetyl/succinylornithine aminotransferase) of E. coli; native, untagged protein, no plasmid or clone used; the last 4 residues (Arg-Gly-Ser-Ser) after Ser402 not modelled, which implies 406 residues; Same polypeptide as m1, with the cofactor PLP added; Endogenous protein of strain BL21 (DE3); also called holo-enzyme; PLP/enzyme complex; source: endogenous, E. coli BL21 (DE3), purified …
stoichiometry N [2]: 2
